{
  "source": "the DeepSol protein solubility set",
  "data": [
    {"assay": "soluble on expression in E. coli; label from the status in PepcDB or PDB records", "values": [
      {"sequence": "MSLTARIDQLLLERLKSAGVEPAPAADDGEFLRRAYLDLSGTIPPVAITRDYLADSSPAKRRQLIERLLASPAFASHLASTWREIILKPTDDFQQLQNQFALQAWLREQFSENARYDRIVEQFITASSEQDGPVYFYDALDLKPEQLAAETSRIFLGLHIQCAECHDHPFDDWKQRDFWGYAAFFARVAKRDSAMGRISEGHHHHHH", "soluble on expression in E. coli": "soluble"},
      {"sequence": "MSLTDLNRTDLNRTDLNRTDLNRTDLNRTALPSRTDGTVEKTDTLVVGAGQAGVAMSEHLSRLGVPHLVLERNRIAEAWRSGRWDSLVANGPAWHDRFPGMEFDIDPDGFPGKDQVAAYFEAYAKKFDAPIRTGVEVRKVVRNVGRPGFTVETSAGTIEANRVVAATGPFQRPVIPPIAPRDERIRQIHSAHYYNPQQLPEGAVLVVGAGSSGVQIADELQRAGRQVYLSVGAHDRPPRSYRNRDFCWWLGVLGEWDAEVAKPGREHVTIAVSGARGGHTVDFRALAHQGVTLVGLTESFVDGVATFRPDLAENLARGDENYLALLDAADAYIARNGLDLPEEPEARRRLPDPQCVTDPILELDLAEAGVGSIIWATGYAVDFGWLQVDAFDRDGKPRHQRGVSSEPGVYFIGLPWLSRRGSSFIWGVWHDARHVADHIAIQRKYLAYRDAAQRQEQDRASQAPQTSLQEVSEGHHHHHH", "soluble on expression in E. coli": "soluble"},
      {"sequence": "MSLTEKVSVFALGGAGEIGKNMYVVELDEDIFVIDAGLMFPGDEMLGIDKVIPDISYLKENKERIQGIFITHGHEDHIGALSYVLRDLKVPVYGTRLTLGLIEIKLKEAGLLKKADLRPIDAKTKLTVAGHFITFFRVNHSIPDAVGVCIQTSQGAIVHTGDFKFDYTPVDGKQADFGKIAAIGQRGVLCLLSDSTNAERPGMSGSESTVGSELNDVIYEAPGRVIVASFASNVHRLQQVFAAAEANNEGHHHHHH", "soluble on expression in E. coli": "soluble"},
      {"sequence": "MSLTELSAFPITRKWPAKHPERLQLYSLPTPNGVKVSIMLEEIGLAYEAHKVSFDNDDQLSPEFISLSANNKIPAILDPNGPGGQPLALFESGAILQYLAEKSGQLLSQDPAQRYQTLQWLMFQMGGIGPMFGQVGFFHFFAGKEYEDKRPRDRYVNESKRLLGVLDRHLKGRQWMAEEYSIADIAIFPWVRNLVERYNARDLVGFDQFKEVQRVLANFLERPAVQRGLKIPGEGHHHHHH", "soluble on expression in E. coli": "soluble"},
      {"sequence": "MSLTELYAKSDLEKIKETLPGWQLDSFNYLNEKIGDKENKFPCIPGRQAFLSDQLRIAFVGDPRNPETAKELAPLLTRYGTISRETGKYASLTVIFHTPEELLTDYKIEDYESLFWQLLNSLSMEDPADWPDDIPENPDNFQWEYCFNGEPYFVLCATPAHSKRKSRSFPYFMLTFQPRWVFEDLNDTTAFGRNMSKQIRKRLEAYDEVPIHPHLGWYGKKDNLEWKQYFLRDDENQVSQCPFMKMKNLFKKERSDEGHHHHHH", "soluble on expression in E. coli": "soluble"},
      {"sequence": "MSLTFLTGVPGFLGTRLLRRLAAAAPDRSFLLLVQPKFEGRTHTLLADRGLADRATVLPGDITEPDLGLGAHYDAVAEQITRAVHLAAVYDLTIPREVGWQVNVEGTRHVLDLLAQCPSLERFGYVSSAYVSGERTGTIHEDELVHEAGFKNFYEETKYHAEVLVQDRMDEIPTLVFRPSIVVGDSETGATDKFDGVYFVLNALRSLPRYTPMTRIGSGTEPVNLVPVDFVVDAMGHLLGTEGHAGTVFHLTDPRPLTAQAIMELLADLLDKRVAYVPVPPGLARAMMKTGVGRALGLAPELIDYFDHPSHYDASNTRAALDGTGIDCPFLPDYAPAMVAYARRHDARSSAMYEGHHHHHH", "soluble on expression in E. coli": "not soluble"},
      {"sequence": "MSLTGGISAFGRMVWEGIQIAHEEKPTVLGEEVELVLLDTRSEKTEAANAAARAIDKEKVLAIIGEVASAHSLAIAPIAEENKVPMVTPASTNPLVTQGRKFVSRVCFIDPFQGAAMAVFAYKNLGAKRVVVFTDVEQDYSVGLSNFFINKFTELGGQVKRVFFRSGDQDFSAQLSVAMSFNPDAIYITGYYPEIALISRQARQLGFTGYILAGDGADAPELIEIGGEAVEGLLFTTHYHPKAASNPVAKKFVEVYKEKYGKEPAALNALGYDAYMVLLDAIERAGSFDREKIAEEIRKTRNFNGASGIINIDENGDEGHHHHHH", "soluble on expression in E. coli": "not soluble"},
      {"sequence": "MSLTGKKIETHLEDMVAQANAQLKLTAPESNLEVSYQNYHRGVFSSQLQLLVKPIAGKENPWIKSGQSVIFNESVDHGPFPLAQLKKLNLIPSMASIQTTLVNNEVSKPLFDMAKGETPFEINSRIGYSGDSSSDISLKPLNYEQKDEKVAFSGGEFQLNADRDAKPSPFPGRRKVVRIDAVNEYNQKVQLTFNNLKTDGSSTLASFGERVGNQKLSLEKMTISVEGKELALLEGMEISGKSDLVNDGKTINSQLDYSLNSLKVQNQDLGSGKLTLKVGQIDGEAWHQFSQQYNAQTQALSRQPEIANNPELYQEKVTEAFFSALPLMLKGDPVITIAPLSWKNSQGESALNLSLFLKDPATTKEAPQTLAQEVDRSVKSLDAKLTIPVDMATEFMTQVARKVIRKIKRKNWRNSKLKVHQQWGRCSVEGHHHHHH", "soluble on expression in E. coli": "not soluble"},
      {"sequence": "MSLTHTVHLHLEETDNLALQRLCGSFDNNLDLLAKALDIHISRRFEHFTFNGAFAHAGKRALLKLLETAQTRDLNDGDIRLAAVEAQTEDAGHQEKNHDHAYYFRTKRGSIGGRTPRQNGYIRALLNHDIVFGLGPAGTGKTYLAVAAAVDAMEKHQVERIILVRPAVEAGEKLGFLPGDLTQKVDPYLRPLYDALYDLMGFDRVTKLIEKGLIEIAPLAYMRGRTLNGAYIILDEAQNTTPEQMKMFLTRIGFGAKAVITGDTSQIDLPKNIKSGLKDAREKLHNVEGLYFHTFTGEDVVRHPLVQKIVEAYESAEHDEGGSHHHHHH", "soluble on expression in E. coli": "soluble"},
      {"sequence": "MSLTISILGARVIDPNSGLDQVTDLHLDGGRIVAIGAAPAGFSASRTIQADGLVAAPGLVDLGVSLREPGYSRKGNIASETRAAVAGGVTSLCCPPQTKPVLDTSAVAELILDRAREAANSKVYPVGALTKGLEGEQLAELVALRDTGCVAFGNGLKEIPNNRTLARALEYAATFDLTVVFHSQDRDLAQGGLAHEGAMASFLGLPGIPESAETVALARNLLLVEQSGVRAHFSQITSARGARLIAQAQALGLPVTADVALYQLILTDESLREFSSLYHVQPPLRTAADRDGLREAVKSGVIQAISSHHQPHERDAKLAPFGATEPGISSVELLLPLAMTLVQDGLLDLPTLLARLSSGPAAALRLPAGELKVGGAADLVLFDPQASTVAGEQWFSRGENCPFIGHCLPGAVRYTLVDGHICHEAEGHHHHHH", "soluble on expression in E. coli": "soluble"},
      {"sequence": "MSLTISNEDNMILMSRYPDKYFDLAIVDPPYGILNKTKRGGDYKFNMNEYSQWDIKPDQTYFNELFRVSKNQIIWGGNYFGELWLRSEYNKGFIIWDKNQPETLNNFSMAEMAWSSFDRPSKIFRFSVRKNRNKTHPTQKPVELYQWLLKMYAKQGDKILDTHLGSGTLAIACCIAQFDLTACEINSDYYQQSIEKIKNNLPEARISFGHPGYCIIEEGGSHHHHHH", "soluble on expression in E. coli": "soluble"},
      {"sequence": "MSLTKILIGQTAGFTGPAGEQVKEMTRGAQLYLDAVNRAGGVYGRRIELISEDDGFDANVSKQRAHTLLTDKQVFALFLSRGTPNTEAIMSEAHAVGAPMVAPSTGASIFFDRPDPLVFVVRAKYQTEIAELVHHFETLGLKRLALVNVNDSFGKDTEAGFTTATQHLPPSTHQIVTVDRLKPNIETATAEIGKFAPNAVILACAGTTAQALAEALTKHGTVSQMATLSNNSSTAFARSLGNMARGMMVTQVMPSPVRATSPIGRELTASAKAAGVMPSYGMMEGYASAKLLVEGLKRAGKAPTRASFVAGLEAAGTIDLGGLDIRNGRNNHKGSSFVEITVIGPHGTFIKEGHHHHHH", "soluble on expression in E. coli": "not soluble"},
      {"sequence": "MSLTLLALGINHKTAPVSLRERVSFSPDKLDQALDSLLAQPMVQGGVVLSTCNRTELYLSVEERDDLQEALIRWLCDYHNLNEDDLRNSLYWHQDNDAVSHLMRVASGLDSLVLGEPQILGQVKKAFADSQKGHMKASELERMFQKSFSVAKRVRTETDIGASAVSVAFAACTLARQIFESLSTVTVLLVGAGETIELVARHLREHKVQKMIIANRTRERAQILADEVGAEVIALSDIDERLREADIIISSTASPLPIIGKGMVERALKSRRNQPMLLVDIAVPRDVEPEVGKLANAYLYSVDDLQSIISHNLAQREGHHHHHH", "soluble on expression in E. coli": "not soluble"},
      {"sequence": "MSLTNEFEILKPGKLLLASANLLDPNFKRTVLLMCEHNEEGSIGFILNKPMEFKVCEAISGFDEIDEPLHMGGPVQVDTVHVLHTRGDVIDGAVEVIPGLFWGGDKEQLSYLINTGVIKASEVRFFLGYAGWSAGQLEAEFEEGSWYTADASSEQVFTDEYERMWSRSVRSKGGEYCYVANSPELPGMNEGHHHHHH", "soluble on expression in E. coli": "soluble"}
    ]}
  ]
}
